{"source": "paper PMC5394239", "about": "(Nature Communications, 2017)", "molecular_target": "the molecule itself", "test": "cryo-EM structure"}
{"protein": "SARS-CoV S ectodomain, uncleaved, trimerization motif and His tag removed by thrombin (domain or fragment) not shown", "values": [{"measurement": "stoichiometry N", "result": 3}]}
